± gives the uncertainty stated by the source.
Experiment: self-splicing fitness, log relative to wild type (ln ratio); higher = more splicing; Tetrahymena group I intron in knt gene, E. coli kanamycin selection, DiMSum; sequences stand for … in CUCUCU…GGAGGGAAAAGUUAUCAGGCAUGCACCUGGUAGCUAGUCUUUAAACCAAUAGAUUGCAUCGGUUUAAAAGGCAAGACCGUCAAAUUGCGGGAAAGGGGUCAACAGCCGUUCAGUACCAAGUCUCAGGGGAAACUUUGAGAUGGCCUUGCAAAGGGUAUGGUAAUAAGCUGACGGACAUGGUCCUAACCACGCAGCCAAGUCCUAAGUCAACAGAUCUUCUGUUGAUAUGGAUGCAGUUCACAGACUAAAUGUCGGUCGGGGAAGAUGUAUUCUUCUCAUAAGAUAUAGUCGGACCUCUCCUUAAUGGGAGCUAGCGGAUGAAGUGAUGCAACACUGGAGCCGCUGGGAACUAAUUUGUAUGCGAAAGUAUAUUGAUUAGUUUUGGAGUACUCGUGGUCG
Procedure, shortened: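 The eight P1ex-region nucleotides of an intron in the knt kanamycin-resistance gene on pET-22b(+) were all randomised and the library put into E. coli BL21(DE3). Six replicate transformations were grown overnight at 37°C or 30°C on LB agar with or without 25 μg/mL kanamycin, together with 100 μg/mL carbenicillin, 50 μM IPTG and 0.2% rhamnose. Colonies were pooled and amplicon-sequenced on an Illumina HiSeq 2500. Fitness from DiMSum is the error-weighted combination of wild-type-normalised replicate fold changes, kanamycin over none.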

Row | Sequence | self-splicing fitness (ln) (30 °C) | self-splicing fitness (ln) (37 °C)
1 | GAUCAGCAAUAUUACGACCU | -0.708 ± 0.089 | -0.346 ± 0.1
2 | GAUCAGCAAUAUUACGAGGG | -1.99 ± 0.11 | -2.17 ± 0.18
3 | GAUCAGCAAUAUUACGAGUG | -1.2 ± 0.06 | -1.21 ± 0.079
4 | GAUCAGCAAUAUUACGAUGU | -0.363 ± 0.062 | 0.0452 ± 0.077
5 | GAUCAGCAAUAUUACGCAGA | -2.13 ± 0.14 | -0.891 ± 0.16
6 | GAUCAGCAAUAUUACGCAGU | -1.74 ± 0.083 | -0.88 ± 0.12
7 | GAUCAGCAAUAUUACGCCAG | -3.32 ± 0.3 | -1.93 ± 0.31
8 | GAUCAGCAAUAUUACGCCCA | -0.563 ± 0.2 | -0.558 ± 0.28
9 | GAUCAGCAAUAUUACGCCGC | -2.29 ± 0.44 | -1.19 ± 0.28
10 | GAUCAGCAAUAUUACGCGCG | -0.222 ± 0.14 | 0.0103 ± 0.15
11 | GAUCAGCAAUAUUACGCUGG | -3.48 ± 0.21 | -3.18 ± 0.27
12 | GAUCAGCAAUAUUACGGAAG | -2.38 ± 0.1 | -0.761 ± 0.091
13 | GAUCAGCAAUAUUACGGGUA | -0.0547 ± 0.089 | -0.665 ± 0.086
14 | GAUCAGCAAUAUUACGGUAA | -0.559 ± 0.075 | 0.194 ± 0.07
15 | GAUCAGCAAUAUUACGGUAU | -0.247 ± 0.068 | -0.46 ± 0.078
16 | GAUCAGCAAUAUUACGGUUC | -2.83 ± 0.23 | -0.31 ± 0.14
17 | GAUCAGCAAUAUUACGGUUU | -0.544 ± 0.074 | -0.154 ± 0.098
18 | GAUCAGCAAUAUUACGUACA | -0.607 ± 0.12 | 0.177 ± 0.15
19 | GAUCAGCAAUAUUACGUAGA | -0.569 ± 0.08 | -0.158 ± 0.14
20 | GAUCAGCAAUAUUACGUAUG | -0.935 ± 0.084 | -0.276 ± 0.097
21 | GAUCAGCAAUAUUACGUGAC | -1.62 ± 0.094 | -1.63 ± 0.12
22 | GAUCAGCAAUAUUACGUGCU | -3.41 ± 0.15 | -2.2 ± 0.16
23 | GAUCAGCAAUAUUACGUGGU | -4.81 ± 0.27 | -2.15 ± 0.13
24 | GAUCAGCAAUAUUACGUGUC | -2.74 ± 0.11 | -2.19 ± 0.17

Row | Sequence | self-splicing fitness (ln) (30 °C) | self-splicing fitness (ln) (37 °C)
25 | GAUCAGCAAUAUUACGUUAA | -1.23 ± 0.076 | -0.776 ± 0.084
26 | GAUGAGCAAUAUUACGAAUG | -2.71 ± 0.21 | -2.67 ± 0.34
27 | GAUGAGCAAUAUUACGACCA | -3.85 ± 0.35 | -3.8 ± 0.39
28 | GAUGAGCAAUAUUACGCAUC | -2.56 ± 0.25 | -2.32 ± 0.28
29 | GAUGAGCAAUAUUACGCCAU | -2.56 ± 0.14 | –
30 | GAUGAGCAAUAUUACGCGUA | -1.96 ± 0.29 | -1.85 ± 0.33
31 | GAUGAGCAAUAUUACGGAUC | -2.36 ± 0.23 | -1.78 ± 0.19
32 | GAUGAGCAAUAUUACGGCUU | -2.34 ± 0.14 | -1.12 ± 0.14
33 | GAUGAGCAAUAUUACGGGAC | – | -3.23 ± 0.4
34 | GAUGAGCAAUAUUACGGGGG | -4.46 ± 0.34 | -1.44 ± 0.25
35 | GAUGAGCAAUAUUACGUAUU | -3.83 ± 0.34 | -3.78 ± 0.36
36 | GAUUAGCAAUAUUACGAAUC | -4.13 ± 0.37 | -1.82 ± 0.31
37 | GAUUAGCAAUAUUACGACCC | -0.91 ± 0.24 | 0.12 ± 0.24
38 | GAUUAGCAAUAUUACGAGCC | -0.73 ± 0.31 | -1.4 ± 0.38
39 | GAUUAGCAAUAUUACGAUCU | -0.776 ± 0.2 | -2.2 ± 0.38
40 | GAUUAGCAAUAUUACGCAAA | -2.19 ± 0.18 | -2.24 ± 0.19
41 | GAUUAGCAAUAUUACGCCCC | -1.52 ± 0.46 | -0.314 ± 0.48
42 | GAUUAGCAAUAUUACGCCGC | -3.47 ± 0.24 | -2.28 ± 0.21
43 | GAUUAGCAAUAUUACGCCGG | -2.88 ± 0.45 | -1.96 ± 0.41
44 | GAUUAGCAAUAUUACGCGGG | -2.31 ± 0.12 | -2.53 ± 0.18
45 | GAUUAGCAAUAUUACGCGGU | -3.5 ± 0.47 | -3.43 ± 0.33
46 | GAUUAGCAAUAUUACGCGUG | -1.23 ± 0.091 | 0.595 ± 0.11
47 | GAUUAGCAAUAUUACGCUAG | -1.95 ± 0.17 | -0.989 ± 0.15
48 | GAUUAGCAAUAUUACGCUAU | -2.97 ± 0.41 | –

Row | Sequence | self-splicing fitness (ln) (30 °C) | self-splicing fitness (ln) (37 °C)
49 | GAUUAGCAAUAUUACGCUGA | -3.17 ± 0.23 | -2.53 ± 0.27
50 | GAUUAGCAAUAUUACGCUGG | -1.73 ± 0.14 | -1.68 ± 0.22
51 | GAUUAGCAAUAUUACGCUUU | -2.1 ± 0.46 | -1.9 ± 0.33
52 | GAUUAGCAAUAUUACGUAAU | -3.06 ± 0.18 | -0.741 ± 0.12
53 | GAUUAGCAAUAUUACGUAUC | – | -2.77 ± 0.36
54 | GAUUAGCAAUAUUACGUCAU | -2.76 ± 0.24 | -1.79 ± 0.36
55 | GAUUAGCAAUAUUACGUGGG | -3.52 ± 0.32 | -2.47 ± 0.27
56 | GAUUAGCAAUAUUACGUUUA | -2.9 ± 0.25 | -1.05 ± 0.15
57 | GCAAAGCAAUAUUACGACGC | -1.27 ± 0.082 | -1.2 ± 0.11
58 | GCAAAGCAAUAUUACGAGGC | -3.55 ± 0.34 | -2.77 ± 0.4
59 | GCAAAGCAAUAUUACGAGUU | -2.47 ± 0.11 | -0.891 ± 0.093
60 | GCAAAGCAAUAUUACGAUAA | -1.48 ± 0.086 | -1.14 ± 0.1
61 | GCAAAGCAAUAUUACGCAUA | -1.86 ± 0.14 | -1.43 ± 0.18
62 | GCAAAGCAAUAUUACGCCCG | -1.23 ± 0.22 | -2.06 ± 0.38
63 | GCAAAGCAAUAUUACGCCGG | -2.44 ± 0.17 | -1.71 ± 0.2
64 | GCAAAGCAAUAUUACGCCUU | -2.55 ± 0.23 | -1.04 ± 0.21
65 | GCAAAGCAAUAUUACGCGGC | -3.95 ± 0.21 | -2.43 ± 0.19
66 | GCAAAGCAAUAUUACGCUAU | -2.57 ± 0.23 | -1.06 ± 0.17
67 | GCAAAGCAAUAUUACGCUCC | -3.61 ± 0.34 | -3.03 ± 0.43
68 | GCAAAGCAAUAUUACGGAGC | -3.91 ± 0.34 | -2.07 ± 0.19
69 | GCAAAGCAAUAUUACGGAUU | -0.922 ± 0.067 | -0.799 ± 0.1
70 | GCAAAGCAAUAUUACGGCUC | -0.596 ± 0.062 | 0.305 ± 0.081
71 | GCAAAGCAAUAUUACGGGCA | -1.3 ± 0.085 | -0.907 ± 0.079
72 | GCAAAGCAAUAUUACGGGCC | -2.74 ± 0.13 | -2.03 ± 0.21

Row | Sequence | self-splicing fitness (ln) (30 °C) | self-splicing fitness (ln) (37 °C)
73 | GCAAAGCAAUAUUACGUACC | -0.781 ± 0.081 | -0.64 ± 0.12
74 | GCAAAGCAAUAUUACGUAUA | -1.65 ± 0.19 | -1.48 ± 0.19
75 | GCAAAGCAAUAUUACGUCAC | -3.96 ± 0.23 | -2.56 ± 0.44
76 | GCAAAGCAAUAUUACGUCGU | -2.22 ± 0.095 | -2.27 ± 0.15
77 | GCAAAGCAAUAUUACGUUUC | -4.41 ± 0.28 | -3.44 ± 0.23
78 | GCACAGCAAUAUUACGAAAU | -1.63 ± 0.099 | -0.818 ± 0.11
79 | GCACAGCAAUAUUACGAAGU | -1.3 ± 0.11 | -0.941 ± 0.14
80 | GCACAGCAAUAUUACGAAUA | -1.42 ± 0.13 | -1.09 ± 0.16
81 | GCACAGCAAUAUUACGAGAU | -1.99 ± 0.088 | -0.678 ± 0.081
82 | GCACAGCAAUAUUACGCCGA | -2.19 ± 0.22 | -1.61 ± 0.17
83 | GCACAGCAAUAUUACGCGUG | -3.87 ± 0.2 | -2.35 ± 0.18
84 | GCACAGCAAUAUUACGCUAU | -1.98 ± 0.08 | -0.752 ± 0.086
85 | GCACAGCAAUAUUACGGAAG | -3.04 ± 0.13 | -2.11 ± 0.13
86 | GCACAGCAAUAUUACGGCCG | -2.48 ± 0.17 | -1.75 ± 0.18
87 | GCACAGCAAUAUUACGGGAC | -1.04 ± 0.068 | -1.35 ± 0.098
88 | GCACAGCAAUAUUACGGGAG | -1.96 ± 0.1 | -1.47 ± 0.12
89 | GCACAGCAAUAUUACGGUUU | -0.633 ± 0.047 | 0.145 ± 0.057
90 | GCACAGCAAUAUUACGUACA | -2.07 ± 0.1 | -0.994 ± 0.1
91 | GCACAGCAAUAUUACGUGCU | -3.6 ± 0.1 | -2.75 ± 0.12
92 | GCAGAGCAAUAUUACGAAGG | -4.31 ± 0.46 | -1.42 ± 0.26
93 | GCAGAGCAAUAUUACGAUGA | -1.42 ± 0.14 | -1.07 ± 0.12
94 | GCAGAGCAAUAUUACGAUGG | -1.98 ± 0.098 | -1.65 ± 0.12
95 | GCAGAGCAAUAUUACGCCGU | -1.7 ± 0.15 | -2.65 ± 0.41
96 | GCAGAGCAAUAUUACGCGCG | -2.8 ± 0.17 | -1.49 ± 0.14

— the supplement of paper PMC7877785
